The source of these data is publication PMC8139424.

For the test, the target named is S2 fragment of the S protein (SARS-CoV-2). The test is described as follows: SEC. A general note: SEC sorts molecules by how far they enter the pores of the column.

In general, stoichiometry N refers to the number of molecules, sites or subunits per partner or assembly. The substance “S2 fragment of the S protein (domain or fragment)” displayed a stoichiometry N of 3.
